Reference: patent publication US20240158477A1 (BIODURO JIANGSU, published 2024)
Positions count from the first letter of the chain named. Read-outs that look alike come from different tables or passages of the source.

B1: Fc tagged nanobody VHH43 (Fc fusion)
chain: EVQLVESGGGLVQPGGSLRLSCAASGFISDADIMGWFRQAPGKGRELVASINSYDSITYYPDSVEGRFTISRDNAKRMVYLQMNSLRAEDTAVYYCAVRVHSRDFSYWGQGTQVTVSSGSGGGGSGGGGS
B2: Fc tagged nanobody VHH79 (Fc fusion)
chain: EVQLVESGGGLVQPGGSLRLSCAASGFTSRNYFMGWFRQAPGKGRELVATINSLSSITYYPDSVEGRFTISRDNAKRMVYLQMNSLRAEDTAVYYCAVYTPTTGPGEGSYTPWHDYWGQGTQVTVSSGSGGGGSGGGGS
B3: Fc tagged nanobody VHH80 (Fc fusion)
chain: EVQLVESGGGLVQPGGSLRLSCAASGFISNFNLMGWFRQAPGKGRELVATINSFDDITYYPDSVEGRFTISRDNAKRMVYLQMNSLRAEDTAVYYCAAEVRSSLDYALWTSRRSAFSYWGQGTQVTVSSGSGGGGSGGGGS
B4: Fc tagged nanobody VHH60 (Fc fusion)
chain: EVQLVESGGGLVQPGGSLRLSCAASGRTFRVNLMGWFRQAPGKGRELVASINGFDDITYYPDSVEGRFTISRDNAKRMVYLQMNSLRAEDTAVYYCAAYDSDYDGRLFNYWGQGTQVTVSSGSGGGGSGGGGS
B5: Fc tagged nanobody VHH34 (Fc fusion)
chain: EVQLVESGGGLVQPGGSLRLSCAASGFIYSFNIMGWFRQAPGKGRELVASINWFSDITYYPDSVEGRFTISRDNAKRMVYLQMNSLRAEDTAVYYCAAYLLRGDDRYYATYSYWGQGTQVTVSSGSGGGGSGGGGS
B6: Fc tagged nanobody VHH82 (Fc fusion)
chain: B5 chain with N52S, W53S, F54Y, S55D
B7: Fc tagged nanobody VHH35 (Fc fusion)
chain: EVQLVESGGGLVQPGGSLRLSCAASGSIYSFNFMGWFRQAPGKGRELVATINSFDDITYYPDSVEGRFTISRDNAKRMVYLQMNSLRAEDTAVYYCAVLGERTGISYGSAFDYWGQGTQVTVSSGSGGGGSGGGGS

Tests used:
[1] = target: T1, COVID-19 S.P. RBD (Cat. #40592-V08B, SB) (SARS-CoV-2, UniProt P0DTC2 319-541)
[2] = target: RBD-Fc (SARS-CoV-2 S protein amino acids 319-541 with human IgG1 Fc) (SARS-CoV-2; human, UniProt P0DTC2 319-541)
[3] = target: SARS-CoV-2 S protein (wildtype) (SARS-CoV-2, UniProt P0DTC2 14-1273); test: cell-based or functional assay
[4] = target: T1, COVID-19 S.P. RBD (Cat. #40592-V08B, SB); remark: listed apart in the source

Binder | Kd [1] [nM] | further results
B1 | 1.44 | 
B2 | 3.44 | 
B3 | 4.27 | 
B4 | 2.56 | EC50 (read off the curve) [2]: ~0.4 nM; IC50, authentic SARS-CoV-2 neutralization on Vero-E6 cells (viral RNA by RT-PCR) [3]: 1.53 nM; IC50, pseudovirus neutralization (luciferase activity in Caco-2 cells) [3]: 7.63 nM
B5 | 2.79 | 
B6 | 2.29 | 
B7 |  | Kd [4]: 0.535 nM
